Results on 167 variants are retold here after the RNAGym collection of RNA variant scans (doi:10.1093/nar/gkz1192).

The labels stand for the following.
B1: CPEB3 Ribozyme (parent)
chain: UAACAGGGGGCCACAGCAGAAGCGUUCACGUCGCAGCCCCUGUCAGAUUCUGGUGAAUCUGCGAAUUCUGCUGUAUAUCUC

This series covers variants of B1. Description: self-cleavage, relative activity (ratio to wild type); higher = more cleavage; in vitro, sequencing. Summed up:
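Libraries of CPEB3 self-cleaving ribozyme mutants came from rounds of error-prone PCR and carried barcodes, which DNA sequencing matched to variants. In vitro transcription used T7 RNA polymerase at 37°C for 5 hours, with a further 15 min in DNase I before EDTA stopped the reaction; the ribozymes cleaved during both steps. The RNA was reverse transcribed with template switching and sequenced on Illumina. Relative activity is the cleaved/total read fraction of a variant divided by that of the unmutated ribozyme, averaged over three batches with at least 5 reads.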
In the case of A13C C38U, the self-cleavage stood at 0.93. As for U1G A35G, the self-cleavage amounted to 1.25.

For C34U U69C, the self-cleavage was 0.35. Then U25G U41G, with 0.43; and A15C C40U, with 0.72.

As for A64U U78G, the self-cleavage turned out to be 0.35. Then A3U U54A, with 1.19; and U41C A56U, with 0.75; and A2G U72C, with 0.74. Take U41A A45U: the self-cleavage was 0.2. Then G7A U49C, with 0.2; and C29A G63U, with 0.59; and C50U U51C, with 0.8. Then U49C G63U, with 0.35; and A13G G30A, with 0.44. Regarding C23U U66C, the self-cleavage amounted to 0.15. Then A18U A28U, with 0.29; and A3C C81G, with 1.19; and A2G A18U, with 0.38.

As to A3G U49A, the self-cleavage was found to be 0.69. Then G10A C11U, with 0.5. Then A20U C39A, with 0.21.

A20U G30U: the self-cleavage worked out at 0.24. Take G61C U72C: the self-cleavage came out at 0.34. For U67A C71A, the self-cleavage was 0.3. Then G6U G73A, with 0.57. Then C29U U80C, with 0.58; and U1C C79A, with 1.03; and U31G G52A, with 0.74.

A18C A47G: the self-cleavage amounted to 0.26. Take G16A U67A: the self-cleavage came out at 0.34. Take G42A U76G: the self-cleavage turned out to be 0.26.

Regarding U72C U80G, the self-cleavage was determined as 1.23. Then U48G A57U, with 1.07; and C40A U66C, with 0.18. Turning to A65G U78G, the self-cleavage amounted to 0.44. Then U25C U78C, with 0.24; and A20C C32A, with 0.25. Then A5G C17U, with 0.47. Then A3U G61C, with 0.5; and G7U U49C, with 0.11.

With A18G U43A, the self-cleavage was found to be 0.72.

For C32U A57C, the self-cleavage is 0.13. Then A21U G24A, with 0.33; and A28G U60C, with 0.25; and U25G U54C, with 0.43. On to A5C U41A, for which the self-cleavage came to 0.28.

Regarding G7C U26C, the self-cleavage was determined as 0.35. Then A15U U69A, with 0.25. Then U26G C38A, with 0.58; and U58A A77G, with 0.38. With U54C C59U, the self-cleavage was 0.68.

Consider C12A A64G, for which the self-cleavage came to 1.21. Then A2C U49C, with 0.42. Then U66A A77G, with 0.45; and U31C U54A, with 0.92; and U58A G63A, with 0.59. Then U41C U78A, with 1.13; and A3G C32G, with 0.17; and G7U A35U, with 0.38. For the variant C12U U72C, the self-cleavage is 1.24.

For the variant A13G G33U, the self-cleavage is 0.24.

In the case of C12U U25G, the self-cleavage is 0.7. Then A5U U26A, with 1.05; and G36U U60C, with 0.11; and U51C U72G, with 0.88. Then U51C U72C, with 1.01.

Take C44A U67C: the self-cleavage came to 0.16.

For U49A A64U, the self-cleavage amounted to 0.25. For C12U C14U, the self-cleavage was 1.25.

As for A18U C81U, the self-cleavage came out at 0.51. Then A18G C23A, with 0.26. U69C A75G: the self-cleavage was found to be 0.5. With A13U A20G, the self-cleavage worked out at 0.93.

Consider U1C A20U, for which the self-cleavage was 0.29. For the variant C37U U60A, the self-cleavage was found to be 0.24. Then A18C C71A, with 0.09; and A47G C71U, with 0.87; and G42A A45C, with 0.32. Then U80A, with 1.13; and A18G A21G, with 0.4. Then A15U C23A, with 0.18. As for U1A U41G, the self-cleavage was found to be 0.27.

Consider A28U C39U, for which the self-cleavage was 0.48. A5G C38U: the self-cleavage was 0.46.

As for G52U U72G, the self-cleavage is 0.99.

For the variant G10A U51C, the self-cleavage is 0.24. On to U67A U72C, for which the self-cleavage is 0.49.

Take U25A U51C: the self-cleavage was determined as 0.23.

With C11A U60C, the self-cleavage was 0.2. Then A28U U66G, with 0.69. Then C14U A18G, with 0.82. Turning to U76G A77U, the self-cleavage worked out at 0.75. A18U G24A: the self-cleavage worked out at 0.36.

Take C37U U41C: the self-cleavage came out at 0.89. Then A5G C59A, with 0.2; and A28G U43G, with 0.17. Then U54C C71A, with 0.39; and U54C C71U, with 0.72; and U74C C79G, with 1.45.

As to A3G U67C, the self-cleavage was 0.33. Then A2U A77G, with 1.04. Then G63A G73A, with 1.34. Then C14A U54G, with 1.21; and A18U C62U, with 0.33; and U31C A56U, with 0.47. In the case of A5U A56U, the self-cleavage is 0.9. Then U43A U48C, with 0.71. As for A5U C14U, the self-cleavage came out at 0.88. Then G63A U76A, with 0.82. Then U48C C68A, with 0.34. Take C17U A64G: the self-cleavage turned out to be 0.52.

As to A28C U67C, the self-cleavage worked out at 0.22. Then G10A U43C, with 0.06.

Regarding U48A C50U, the self-cleavage is 0.35.

In the case of U25G C50U, the self-cleavage stood at 0.14. Then A20G G73A, with 1.22. Turning to A3G G33U, the self-cleavage is 0.11. A47G G55A: the self-cleavage came to 0.75. Then C34U U80A, with 0.51; and C44G U72C, with 0.54. Then A35G G52A, with 1.36; and C59U, with 0.95. Regarding C59A, the self-cleavage stood at 0.37.

For the variant A57U U78G, the self-cleavage was determined as 0.75. In the case of G30U A57U, the self-cleavage is 0.14. Then U67C C79A, with 0.49. Then G46A A75G, with 0.25; and A65G U74A, with 0.86. Then G30A U51A, with 0.15.

Turning to U1A G33A, the self-cleavage is 0.28. Then A20U U31C, with 0.26; and A20U U31A, with 0.24; and G10A A18U, with 0.15. Then U26A U41C, with 0.67; and A57G C59A, with 0.2. Then U54G, with 0.77. In the case of G7A U25C, the self-cleavage is 0.33. G33A U66C: the self-cleavage came out at 0.31. Then U1C A64G, with 0.8; and C38G U69A, with 0.19. Then U25C U31C, with 0.23; and A13G A15G, with 0.35. Then A13C A28U, with 0.76; and A18G U60C, with 0.28; and C27A C50U, with 0.17. A3U A75G: the self-cleavage amounted to 1.06. On to U26A C44G, for which the self-cleavage was 0.94.

For U43A U69A, the self-cleavage was found to be 0.79. Then C40G U60C, with 0.16; and C37U A56G, with 0.45; and C37U A56U, with 0.47.

Regarding G8C U54C, the self-cleavage amounted to 0.44. Then C40A A47C, with 0.17; and A20U U72C, with 0.34. Then U49C A77G, with 0.45; and U43C G70U, with 0.18. Then A28G C68G, with 0.14; and G8A U66C, with 0.12. For U31G A56G, the self-cleavage stood at 0.45. G16A U72G: the self-cleavage came to 0.16. Then U48A A56C, with 0.26; and A56U C81A, with 1.2. Then A5C U78C, with 0.89; and G36A A77G, with 0.17. Turning to A45C A56C, the self-cleavage was determined as 0.42.

In the case of C40U G55U, the self-cleavage was found to be 0.49.
